B1: GguR binding site 26 bp (negative control) (dsDNA)
DNA 1: ACCCCCAGTCATCAGACAACCTCCCC
DNA 2: GGGGAGGTTGTCTGATGACTGGGGGT
B2: PunR-binding site 36 bp upstream of punC (dsDNA)
DNA 1: TGGGGACTGGTTTCAAAAATTTTGCAGGCAGAGGGG
DNA 2: CCCCTCTGCCTGCAAAATTTTTGAAACCAGTCCCCA

Key:
[1] = target: T1, PunR (YdhB), LysR-family regulator (Escherichia coli K-12 (ASKA collection …, UniProt P0ACR2 1-310)); test: EMSA; 1 mM adenine; PunR up to 1.5 uM; 10 mM MgSO4; FP: 20 mM Tris-HCl pH 7.5, 0.1 M NaCl, 0.5 mM EDTA, 10 mM MgSO4, 2 mM DTT, 5 ug/ml herring sperm DNA, 10 nM DNA, 30 C 1 h; EMSA: PBS pH 8, 10 mM MgSO4, 2 mM DTT, 0.25 mM adenine (Methods; 1 or 10 mM in Results and Fig. S3), 100 nM DNA, 30 C 1 h then 25 C 1 h, 6% native PAGE Tris-glycine with 0.25 mM adenine; conditions: protein: recombinant; tags: N-terminal His6; chain copies: 4; label: 5' 6-carboxyfluorescein on printed strand; blunt
T1 sequence: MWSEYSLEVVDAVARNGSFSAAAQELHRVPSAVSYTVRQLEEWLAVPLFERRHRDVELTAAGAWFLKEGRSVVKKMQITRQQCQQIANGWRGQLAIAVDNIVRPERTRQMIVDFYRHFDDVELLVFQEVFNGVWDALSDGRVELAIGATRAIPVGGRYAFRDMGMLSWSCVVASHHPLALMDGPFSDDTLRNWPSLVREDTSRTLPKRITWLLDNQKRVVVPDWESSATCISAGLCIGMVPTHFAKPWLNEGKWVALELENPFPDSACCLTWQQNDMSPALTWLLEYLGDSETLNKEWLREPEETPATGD

[2] = target: T1, PunR (YdhB), LysR-family regulator; test: fluorescence polarization; 0.35 mM adenine; 10 mM MgSO4; FP: 20 mM Tris-HCl pH 7.5, 0.1 M NaCl, 0.5 mM EDTA, 10 mM MgSO4, 2 mM DTT, 5 ug/ml herring sperm DNA, 10 nM DNA, 30 C 1 h; EMSA: PBS pH 8, 10 mM MgSO4, 2 mM DTT, 0.25 mM adenine (Methods; 1 or 10 mM in Results and Fig. S3), 100 nM DNA, 30 C 1 h then 25 C 1 h, 6% native PAGE Tris-glycine with 0.25 mM adenine; conditions: protein: recombinant; tags: N-terminal His6; chain copies: 4; label: 5' 6-carboxyfluorescein on printed strand; blunt

Binder | binding result [1] | Kd [2]
B1 | no binding | 
B2 |  | 0.027 µM

Source: publication PMC8376909, “Identification of a transcription factor, PunR, that regulates the purine and purine nucleoside transporter punC in E. coli”
